Measured values reported in patent publication US20130273567A1, “Screening Method for Candidate Agonist Compounds for Adiponectin Receptor I” (priority 2010, published 2013).

Assays:
mAdipoR1 = biological target: T1, mAdipoR1 (Mus musculus, UniProt Q91VH1); test: Xenopus oocytes injected with AdipoR1 cRNA, two-electrode voltage clamp recording; type: cell-based
T1 construct: expressed in transfected cells; host or cells: Xenopus oocytes (stage V to VII) injected with cRNA
T1 sequence (Q91VH1 1-375): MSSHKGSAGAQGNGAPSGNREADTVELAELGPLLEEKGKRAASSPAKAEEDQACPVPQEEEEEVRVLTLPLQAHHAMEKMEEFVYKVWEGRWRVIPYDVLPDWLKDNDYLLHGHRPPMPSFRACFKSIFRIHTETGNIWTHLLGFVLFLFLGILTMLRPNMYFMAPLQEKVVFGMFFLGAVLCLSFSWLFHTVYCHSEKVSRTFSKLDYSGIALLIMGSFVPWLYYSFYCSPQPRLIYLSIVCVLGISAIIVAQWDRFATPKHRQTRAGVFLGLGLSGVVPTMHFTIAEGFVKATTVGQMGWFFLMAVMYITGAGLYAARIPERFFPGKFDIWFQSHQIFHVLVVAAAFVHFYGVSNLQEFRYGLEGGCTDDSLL
Experimental: Stage V to VII oocytes were treated with 2 mg/ml of collagenase S-1 (Nitta gelatin) in calcium ion-free saline solution (82.5 mM NaCl, 2 mM KCl, 1 mM MgCl2, and 5 mM HEPES, pH 7.5) for 1 to 2 hr at room temperature. The resulting oocytes were then microinjected with 50 ng of cRNA for mAdipoR1. The cRNA was synthesized from linearized modified pSPUTK. The injected oocytes were incubated for 3 days at 18° C. in a bath solution (88 mM NaCl, 1 mM KCl, 0.3 mM Ca(NO3)2, 0.4 mM CaCl2, 0.8 mM MgSO4, 2.4 mM NaHCO3, 15 mM HEPES, pH 7.6) supplemented with 10 μg/ml of penicillin and streptomycin.
Whole cell currents were recorded with a two-electrode voltage clamp technique. Intracellular glass electrodes were filled with 3M KCl. Signals were amplified with an OC-725C amplifier (Warner Instruments), low-pass filtered at 50 Hz, and digitized at 1 kHz. A control bath solution contained 115 mM NaCl, 2.5 mM KCl, 1.8 mM CaCl2, and 10 mM HEPES. It was titrated to pH 7.2 with NaOH. A calcium ion free solution containing 1.8 mM BaCl2 instead of CaCl2 was used. The inward current was monitored at a holding potential of −80 mV. Calcium ion activated Cl^− current was monitored by applying 500-mscc depolarizing pulses of +100 mV and +50 mV from the holding potential of −80 mV. Adiponectin was supplied to the superfusing bath solution via a silicon tube connected to computer-driven solenoid valves. Data acquisition and analysis were carried out using Digidata 1322A and pCLAMP software.

AdipoR1 = biological target: T2, AdipoR1 (Mus musculus, UniProt Q91VH1); test: Calcium imaging in C2C12 myocytes (fura-2); type: cell-based; set-up: endogenous in cells; host or cells: mouse C2C12 myocytes (differentiated from myoblasts)
T2 sequence (Q91VH1 1-375): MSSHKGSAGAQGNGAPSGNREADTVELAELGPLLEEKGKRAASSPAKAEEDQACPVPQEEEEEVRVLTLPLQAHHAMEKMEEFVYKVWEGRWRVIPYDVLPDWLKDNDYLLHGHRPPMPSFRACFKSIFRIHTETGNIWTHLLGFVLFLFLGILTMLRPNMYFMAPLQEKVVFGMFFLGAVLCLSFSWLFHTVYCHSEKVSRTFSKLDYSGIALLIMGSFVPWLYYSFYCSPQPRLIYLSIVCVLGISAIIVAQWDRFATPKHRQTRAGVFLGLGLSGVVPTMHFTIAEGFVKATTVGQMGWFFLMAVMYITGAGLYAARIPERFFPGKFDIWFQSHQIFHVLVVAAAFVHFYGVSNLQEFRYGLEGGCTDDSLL
Experimental: C212 myocytes cultured on glass base dishes (IWAKI) were treated with 2.5 μM fura-2/AM for 30 min. Fluorescence was measured with an Aquacosmos Calcium Imaging system (Hamamatsu Photonics). Ligands were delivered through the superfusing Ringer's solution (140 mM NaCl, 5.6 mM KCl, 5 mM HEPES, 2.0 mM sodium pyruvate, 1.25 mM KH2PO4, 2.0 mM CaCl2, 2.0 mM MgCl2, 9.4 mM D-glucose (pH 7.4)). For the calcium chelating experiment, EGTA solution (140 mM NaCl, 5.6 mM KCl, 5 mM HEPES, 2.0 mM sodium pyruvate, 1.25 mM KH2PO4, 2.0 mM MgCl2, 5.0 mM EGTA-2Na, 9.4 mM D-glucose (pH 7.4) was used for the bath solution. Fura-2 fluorescence ratios were calibrated to calcium ion signals.

PGC-1α (Ppargc1a) = test: Ppargc1a mRNA levels in skeletal muscle treated with adiponectin; type: in vivo, mice; details: control littermates; adiponectin 30 μg per 10 g body weight, 10 min
Experimental: (§1) Mouse full-length adiponectin was generated as described in the following documents (Nature Med. 8, 1288-1295 (2002); Nature Med. 7, 941-946 (2001); Nature 423, 762-769 (2003)).
(§2) Real-time PCR was carried out according to the method described in the following documents (Nature Med. 13, 332-339 2007); Nature 423, 762-769 (2003); J. Biol. Chem. 281, 8748-8755 (2006)). Total RNA was prepared from cells or tissues by using Trizol (Invitrogen) according to the manufacturer's instructions. Quantification of mRNA was conducted using a real-time PCR method (Nature 423, 762-769 (2003)) with slight modifications. The procedures used for immunoblotting are described in the following documents (Nature Med. 7, 941-946 (2001); J. Biol. Chem. 281, 26602-26614 (2006); J. Biol. Chem. 281, 8748-8755 (2006)). The livers or muscles were freeze-clamped in liquid nitrogen in situ (Nature Med. 7, 941-946 (2001); J. Biol. Chem. 281, 26602-26614 (2006); J. Biol. Chem. 281, 8748-8755 (2006)).

AMPK [1] = test: AMPK phosphorylation in C2C12 myocytes (immunoblotting); type: cell-based, mouse; details: C2C12 myocytes, adiponectin 30 μg/ml
Experimental: The mouse C2C12 myoblasts were grown in 90% Dulbecco's modified high glucose Eagle's medium containing 10% (v/v) fetal bovine serum. When the cells reached 80% confluent, the myoblasts were induced to differentiate into myocytes by replacing the medium with a low serum differentiation medium (98% Dulbecco's modified high glucose Eagle's medium, 2.5% (v/v) horse serum). The medium was changed daily. The C2C12 cells were transfected by using Pofectamine 2000 (Invitrogen) and following the manufacturer's instructions.

AMPK [2] = test: AMPK phosphorylation in vivo (skeletal muscle and liver, immunoblotting); set-up: species or system mice; details: adiponectin 30 μg per 10 g body weight, 10 min
Experimental: as §1, §2

B1: adiponectin: recombinant murine full-length adiponectin, internal ligand of adiponectin receptor 1 (protein, UniProt Q60994 1-247, looked up)
chain: MLLLQALLFLLILPSHAEDDVTTTEELAPALVPPPKGTCAGWMAGIPGHPGHNGTPGRDGRDGTPGEKGEKGDAGLLGPKGETGDVGMTGAEGPRGFPGTPGRKGEPGEAAYVYRSAFSVGLETRVTVPNVPIRFTKIFYNQQNHYDGSTGKFYCNIPGLYYFSYHITVYMKDVKVSLFKKDKAVLFTYDQYQEKNVDQASGSVLLHLEVGDQVWLQVYGDGDHNGLYADNVNDSTFTGFLLYHDTN
modifications: full-length
calcium-ion activated Cl- current response (mAdipoR1; control oocytes (no AdipoR1 cRNA), adiponectin 30 μg/ml): not observed | inward current responses (mAdipoR1; oocytes expressing AdipoR1, holding potential -80 mV, adiponectin 30 μg/ml 30 sec): induced | intracellular calcium levels by calcium-ion activated Cl- current (mAdipoR1; oocytes injected with AdipoR1 complementary RNA, adiponectin 30 μg/ml): increase | dose dependence of calcium response (AdipoR1): dose-dependent responses | intracellular calcium ion concentration (fura-2-based fluorescent imaging) (AdipoR1; adiponectin 30 μg/ml, 1 min): increased | expression levels of Ppargc1a in muscle (PGC-1α (Ppargc1a)): increased | phosphorylation of AMPK α-subunits at Thr 172 (AMPK [1]): increased | phosphorylation of AMPK in liver (AMPK [2]; both genotypes (control and muscle-R1KO)): increased | phosphorylation of AMPK in muscle (AMPK [2]; control littermates): increased
